Measurements from publication PMC5773555, “Structural basis of SALM5-induced PTPδ dimerization for synaptic differentiation” (Nature Communications, 2018).

T1: human SALM5 LRR-Ig L327N (human, UniProt Q96NI6 18-374, L327N, introduced N-linked glycan wedge GlcNAc2Man5 (confirmed by mass spectrometry))
T1 construct: SALM5, human, LRR and Ig domains, residues 18-374, with L327N; source: BacMam baculovirus-transduced HEK293 GnTI- cells, secreted, purified (Ni-NTA, gel filtration); not shown: His7, C-terminal, kept
T1 sequence (looked up): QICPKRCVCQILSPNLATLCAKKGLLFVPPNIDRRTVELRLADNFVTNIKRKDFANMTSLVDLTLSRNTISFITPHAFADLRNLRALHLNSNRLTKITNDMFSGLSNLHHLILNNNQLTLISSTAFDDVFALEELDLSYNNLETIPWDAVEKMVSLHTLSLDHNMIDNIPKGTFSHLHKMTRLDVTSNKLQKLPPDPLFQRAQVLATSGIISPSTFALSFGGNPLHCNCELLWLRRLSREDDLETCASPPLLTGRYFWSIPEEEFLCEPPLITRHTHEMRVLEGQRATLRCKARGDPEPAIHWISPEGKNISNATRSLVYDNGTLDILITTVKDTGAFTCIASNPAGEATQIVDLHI

T2: human SALM5 LRR-Ig R110N/E160S (human, UniProt Q96NI6 18-374, R110N | E160S, N-linked glycans added at residues R110 and N158 (glycan wedge, shown by mass spectrometry))
T2 construct: SALM5, human, LRR and Ig domains, residues 18-374, with R110N and E160S; also called monomeric SALM5 R110N/E160S mutant; source: BacMam baculovirus-transduced HEK293 GnTI- cells, secreted, purified (Ni-NTA, gel filtration)
T2 sequence (looked up): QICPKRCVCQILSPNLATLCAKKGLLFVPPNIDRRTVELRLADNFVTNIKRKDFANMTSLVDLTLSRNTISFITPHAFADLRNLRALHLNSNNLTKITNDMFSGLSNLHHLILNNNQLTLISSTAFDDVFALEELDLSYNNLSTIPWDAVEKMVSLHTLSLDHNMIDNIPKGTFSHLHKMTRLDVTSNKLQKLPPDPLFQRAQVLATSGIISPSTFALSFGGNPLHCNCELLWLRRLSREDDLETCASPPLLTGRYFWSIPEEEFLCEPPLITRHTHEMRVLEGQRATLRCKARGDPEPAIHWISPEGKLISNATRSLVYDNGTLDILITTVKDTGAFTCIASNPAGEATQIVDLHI

B1: human SALM5 LRR-Ig (wild type) (domain or fragment, UniProt Q96NI6 18-374, looked up)
chain: QICPKRCVCQILSPNLATLCAKKGLLFVPPNIDRRTVELRLADNFVTNIKRKDFANMTSLVDLTLSRNTISFITPHAFADLRNLRALHLNSNRLTKITNDMFSGLSNLHHLILNNNQLTLISSTAFDDVFALEELDLSYNNLETIPWDAVEKMVSLHTLSLDHNMIDNIPKGTFSHLHKMTRLDVTSNKLQKLPPDPLFQRAQVLATSGIISPSTFALSFGGNPLHCNCELLWLRRLSREDDLETCASPPLLTGRYFWSIPEEEFLCEPPLITRHTHEMRVLEGQRATLRCKARGDPEPAIHWISPEGKLISNATRSLVYDNGTLDILITTVKDTGAFTCIASNPAGEATQIVDLHI
modifications: N-linked glycans at N73, N330 and N339
notes: SALM5, human, LRR and Ig domains, residues 18-374; Glycans trimmed with Endo H only for crystallization; also called SALM5 LRR-Ig WT; WT; source: BacMam baculovirus-transduced HEK293 GnTI- cells, secreted, purified (Ni-NTA, gel filtration); not shown: His7, C-terminal, kept

Legend:
[1] = target: B1; assay: SPR; Biacore T200, 25 °C; His-tagged SALM5 LRR-Ig immobilised on CM5; His-tagged PTPδ Ig1–3 variants as analytes 2.74-6000 nM; 10 mM HEPES pH 7.4, 150 mM NaCl, 3 mM EDTA, 0.05% P20; 1:1 Langmuir model; details: both partners purified
[2] = target: the molecule itself; assay: crystal structure; SALM5 LRR-Ig in complex with PTPδ Ig1–3 (MeA^−), Endo H trimmed; 3.73 Å; 0.76 M potassium sodium tartrate, 0.1 M MES pH 6.0; molecular replacement
human SALM5 LRR-Ig L327N = target: T1, human SALM5 LRR-Ig L327N; assay: SPR; Biacore T200, 25 °C; Fc-tagged PTPδ Ig1–3 (MeA^−) amine-coupled to CM5 (about 500 RU); SALM5 LRR-Ig analytes 23.43-1500 nM; 10 mM HEPES pH 7.4, 150 mM NaCl, 3 mM EDTA, 0.05% P20; 1:1 Langmuir model; details: both partners purified
[3] = target: B1; assay: as above; details: both partners purified
[4] = target: T2, human SALM5 LRR-Ig R110N/E160S; assay: SEC; purified SALM5 and PTPδ mixed, 1 h at 4 °C, Superdex 200 Increase in HBS (10 mM HEPES pH 7.5, 500 mM NaCl); details: both partners purified

| Binder | Kd [1] | other results |
| --- | --- | --- |
| human PTPδ Ig1–3 WT (domain or fragment, UniProt P23468 21-320, looked up, PTPδ, human, Ig domains 1-3 with MeA and MeB remained; residues 21-320 as stated for its variants; also called MeA^+/MeB^+; source: BacMam baculovirus-transduced HEK293 GnTI- cells, secreted, purified (Ni-NTA, gel filtration); not shown: His7, C-terminal, kept) ETPPRFTRTPVDQTGVSGGVASFICQATGDPRPKIVWNKKGKKVSNQRFEVIEFDDGSGSVLRIQPLRTPRDEAIYECVASNNVGEISVSTRLTVLREDQIPRGFPTIDMGPQLKVVERTRTATMLCAASGNPDPEITWFKDFLPVDTSNNNGRIKQLRSESIGGTPIRGALQIEQSEESDQGKYECVATNSAGTRYSAPANLYVRELREVRRVPPRFSIPPTNHEIMPGGSVNITCVAVGSPMPYVKWMLGAEDLTPEDDMPIGRNVLELNDVRQSANYTCVAMSTLGVIEAIAQITVK | 66 nM |  |
| human PTPδ Ig1–3 (MeA^−/MeB^−) (domain or fragment, UniProt P23468 21-320, looked up, PTPδ, human, Ig domains 1-3, residues 21-320 with both residues 181-189 (MeA) and 227-230 (MeB) deleted; Splice code variant lacking mini exons A and B; source: BacMam baculovirus-transduced HEK293 GnTI- cells, secreted, purified (Ni-NTA, gel filtration); not shown: His7, C-terminal, kept) ETPPRFTRTPVDQTGVSGGVASFICQATGDPRPKIVWNKKGKKVSNQRFEVIEFDDGSGSVLRIQPLRTPRDEAIYECVASNNVGEISVSTRLTVLREDQIPRGFPTIDMGPQLKVVERTRTATMLCAASGNPDPEITWFKDFLPVDTSNNNGRIKQLRSGALQIEQSEESDQGKYECVATNSAGTRYSAPANLYVRVRRVPPRFSIPPTNHEIMPGGSVNITCVAVGSPMPYVKWMLGAEDLTPEDDMPIGRNVLELNDVRQSANYTCVAMSTLGVIEAIAQITVK | 1870 nM |  |
| human PTPδ Ig1–3 (MeB^−) (domain or fragment, UniProt P23468 21-320, looked up, PTPδ, human, Ig domains 1-3, residues 21-320 with the MeB splice insert ELRE 227-230 deleted; Splice code variant lacking mini exon B; also called MeA^+/MeB^−; source: BacMam baculovirus-transduced HEK293 GnTI- cells, secreted, purified (Ni-NTA, gel filtration); not shown: His7, C-terminal, kept) ETPPRFTRTPVDQTGVSGGVASFICQATGDPRPKIVWNKKGKKVSNQRFEVIEFDDGSGSVLRIQPLRTPRDEAIYECVASNNVGEISVSTRLTVLREDQIPRGFPTIDMGPQLKVVERTRTATMLCAASGNPDPEITWFKDFLPVDTSNNNGRIKQLRSESIGGTPIRGALQIEQSEESDQGKYECVATNSAGTRYSAPANLYVRVRRVPPRFSIPPTNHEIMPGGSVNITCVAVGSPMPYVKWMLGAEDLTPEDDMPIGRNVLELNDVRQSANYTCVAMSTLGVIEAIAQITVK | 1780 nM |  |
| B1 |  | stoichiometry N [2]: 2 |
| Fc-tagged human PTPδ Ig1–3 (MeA^−) (Fc fusion, UniProt P23468 21-320, looked up, BacMam vector with C-terminal human IgG1 Fc plus 7x His-tag; also called PTPδ-Fc; PTPδ Ig1–3 (MeA^−)-Fc; source: BacMam baculovirus-transduced HEK293 GnTI- cells, secreted, purified (Ni-NTA, gel filtration); not shown: Fc (human IgG1), C-terminal, kept) ETPPRFTRTPVDQTGVSGGVASFICQATGDPRPKIVWNKKGKKVSNQRFEVIEFDDGSGSVLRIQPLRTPRDEAIYECVASNNVGEISVSTRLTVLREDQIPRGFPTIDMGPQLKVVERTRTATMLCAASGNPDPEITWFKDFLPVDTSNNNGRIKQLRSGALQIEQSEESDQGKYECVATNSAGTRYSAPANLYVRELREVRRVPPRFSIPPTNHEIMPGGSVNITCVAVGSPMPYVKWMLGAEDLTPEDDMPIGRNVLELNDVRQSANYTCVAMSTLGVIEAIAQITVK |  | Kd (human SALM5 LRR-Ig L327N): 145 nM; Kd [3]: 282 nM |
| human PTPδ Ig1–3 (MeA^−) (domain or fragment, UniProt P23468 21-320, looked up, Glycans trimmed with Endo H only for crystallization; also called MeA^−/MeB^+; source: BacMam baculovirus-transduced HEK293 GnTI- cells, secreted, purified (Ni-NTA, gel filtration); not shown: His7, C-terminal, kept) ETPPRFTRTPVDQTGVSGGVASFICQATGDPRPKIVWNKKGKKVSNQRFEVIEFDDGSGSVLRIQPLRTPRDEAIYECVASNNVGEISVSTRLTVLREDQIPRGFPTIDMGPQLKVVERTRTATMLCAASGNPDPEITWFKDFLPVDTSNNNGRIKQLRSGALQIEQSEESDQGKYECVATNSAGTRYSAPANLYVRELREVRRVPPRFSIPPTNHEIMPGGSVNITCVAVGSPMPYVKWMLGAEDLTPEDDMPIGRNVLELNDVRQSANYTCVAMSTLGVIEAIAQITVK | 99.9 nM | binding result [4]: binds |
